EC50 and IC50 data for one molecule are collected here from patent US20230106247A1 (L AND L BIO CO LTD NINGBO CHINA, published 2023).

Read-outs that look alike come from different tables or passages of the source.

Assay [1] concerns the target T1, human Sirpα-V1-his (human, UniProt P78324 31-373).
T1 construct: range 31-373; Bought (Sino Biological 11612-H08H) or expressed in-house; also called hSirpα-V1; hSirpα-V1-his
The assay can be described thus: ELISA. The procedure:
The self-expressed human PD-1, Sirpα and the like antigens of the present disclosure were diluted with a PBS buffer at pH7.4 to a concentration of 2 μg/mL according to different assays, and then added into a 96-well ELISA plate (Corning, CLS3590-100EA) at a volume of 50 μL/well, and placed in an incubator at 37° C. for 2 hours. After the liquid was discarded, the wells were added with a blocking solution of 5% skimmed milk (Sangon Biotech (Shanghai) Co., Ltd., A600669-0250) diluted with PBS at 200 μL/well, and incubated in an incubator at 37° C. for 3 hours, or placed overnight at 4° C. (for 16-18 hours) for blocking. The blocking solution was discarded, and the plate was washed with a PBST buffer (pH7.4 PBS containing 0.05% tween-20) for 5 times, then added with 50 μL/well of 5-fold serial dilution of the antibody to be tested in 1% BSA, and incubated at 37° C. for 1 hour. […] The plated was washed with PBST for 5 times, then added with 50 μL/well of TMB chromogenic substrate (KPL, 52-00-03), incubated at room temperature for 5-10 min, added with 50 μL/well of 1 M H₂SO₄ to stop the reaction, and read by a […] Go microplate reader (ThermoFisher, 51119200) for the absorbance value at 450 nm, and then EC₅₀ was calculated according to the OD value.
The aforementioned bispecific antibodies were cloned, expressed and purified according to the cloning, expression and purification methods of Example 1 of the present disclosure.

The target in assay [2] is human Sirpα-V2-his (human). The assay is described as follows: blocking ELISA, competitor CD47-his. The procedure: (§1) Specifically, the recombinant protein of human Sirpα-V2-his was diluted to a concentration of 2 μg/mL with a PBS buffer at pH7.4, then added into a 96-well ELISA plate (Corning, CLS3590-100EA) at a volume of 50 μL/well, and placed in an incubator at 37° C. for 2 hours. After the liquid was discarded, the wells were added with a blocking solution of 5% skimmed milk (skimmed milk powder available from Bright Dairy) diluted with PBS at 230 μL/well, and incubated in an incubator at 37° C. for 3 hours, or placed overnight at 4° C. (for 16-18 hours) for blocking. […] The plate was washed for 5 times, added with 50 μL/well of a streptavidin-HRP secondary antibody (GenScript, M00091) diluted at 1:1000, incubated at 37° C. for 1 hour, and then washed with PBST for 5 times. Each well was added with 50 μL TMB (Surmodic, Cat #TTMB-1000-01) for color development, and added with 50 μL/well of 1 M H₂SO₄ to stop the reaction. The readings on a microplate reader (MultiskanGO Thermo, Model: 51119200) were subjected to data analysis by GraphPad prism 5.
Chain of human Sirpα-V2-his (human) (chain, as listed by the source): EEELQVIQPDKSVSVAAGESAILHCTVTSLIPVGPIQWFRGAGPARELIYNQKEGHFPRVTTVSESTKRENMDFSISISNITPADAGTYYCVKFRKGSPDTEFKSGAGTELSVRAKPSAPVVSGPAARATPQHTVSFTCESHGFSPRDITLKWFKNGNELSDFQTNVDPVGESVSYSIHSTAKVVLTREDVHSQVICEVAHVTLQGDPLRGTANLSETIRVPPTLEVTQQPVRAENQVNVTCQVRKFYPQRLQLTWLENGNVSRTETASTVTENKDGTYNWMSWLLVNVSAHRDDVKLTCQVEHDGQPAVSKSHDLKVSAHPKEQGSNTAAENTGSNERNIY
On the technique in general: ELISA stands for enzyme-linked immunosorbent assay.

Assay [3] deals with T1, human Sirpα-V1-his. The assay can be described thus: ELISA. This is another data set of the same source.
Assay [4] concerns the target T2, human Sirpα-V1 on CHO-K1 cells (CHO-K1 hSirpα+ cell line) (human, UniProt P78324 31-504).
T2 construct: whole, on cells; also called hSirpα-v1+ cell strain
The assay can be described thus: cell ELISA on hSirpα-v1+ cell strain. The source says: The readings on a microplate reader (MultiskanGO Thermo, Model 51119200) were subjected to data analysis by GraphPad prism 5.

Assay [5] deals with T3, human Sirpα-V1-hFc (human, UniProt P78324 31-373).
T3 construct: range 31-373; also called hSirpα (dimer); hSirpα-V1-hFc (dimer); not shown: human IgG1 Fc region at the C-terminus
The assay can be described thus: blocking ELISA, competitor CD47-his. The protocol: (§2) The recombinant proteins such as human Sirpα-V1-hFc/Sirpα-V1-his were diluted to concentrations of 5 μg/mL or 2 μg/mL respectively with a PBS buffer at pH 7.4, and then added into a 96-well ELISA plate (Corning, CLS3590-100EA) at a volume of 50 μL/well, and placed in an incubator at 37° C. for 2 hours. After the liquid was discarded, the wells were added with a blocking solution of 5% skimmed milk (skimmed milk powder available from Bright Dairy) diluted with PBS at 230 μL/well, and incubated in an incubator at 37° C. for 3 hours, or placed overnight at 4° C. (for 16-18 hours) for blocking. […] The plate was washed for 5 times, added with 50 μL/well of streptavidin-HRP (GenScript, M00091) or anti-his-HRP secondary antibody (GenScript, A00612) diluted at 1:1000, incubated at 37° C. for 1 hour, and then washed with PBST for 5 times. Each well was added with 50 μL of TMB (Surmodic, Cat #: TTMB-1000-01) for color development, and added with 50 μL/well of 1 M H₂SO₄ to stop the reaction. The readings on a microplate reader (MultiskanGO Thermo, Model 51119200) were subjected to data analysis by GraphPad prism 5.

For assay [6], the target named is T3, human Sirpα-V1-hFc. The assay can be described thus: blocking ELISA, competitor CD47-his. The protocol:
The antigens PD-1 and Sirpα expressed according to the method of Example 1 were diluted with a PBS buffer at pH7.4 to a concentration of 2 μg/mL, added into a 96-well ELISA plate (Corning, CLS3590-100EA) at a volume of 50 μL/well, and incubated at 37° C. for 2 hours. After the liquid was discarded, the wells were added with a blocking solution of 5% skimmed milk (Sangon Biotech (Shanghai) Co., Ltd., A600669-0250) formulated with PBS at 200 μL/well, and incubated at 37° C. for 3 hours for blocking. […] The plate was washed with PBST for 5 times, added with 50 μL/well of HRP-labeled secondary antibody (GenScript Biotechnology Co., Ltd., M00091) diluted at 1:1000, and incubated at 37° C. for 1 hour. The plated was washed with PBST for 5 times, then added with 50 μl/well of TMB chromogenic substrate (KPL, 52-00-03), incubated at room temperature for 5-10 min, added with 50 μl/well of 1 M H₂SO₄ to stop the reaction, and read by a […] Go microplate reader (ThermoFisher, 51119200) for the absorbance value at 450 nm, and then IC₅₀ was calculated according to the OD value.
The source holds these as a separate data set.

Assay [7] deals with T1, human Sirpα-V1-his. The assay is described as follows: blocking ELISA, competitor CD47-hFc. The procedure:
as §2

For assay [8], the target named is human Sirpα-V2-his (human). The assay is described as follows: blocking ELISA, competitor CD47-hFc. The procedure: as §1

B1: humanized antibody mab14-h16 (antibody, human IgG4 S228P, kappa, V domains shown)
VH: QVQLVQSGAEVKKPGASVKVSCKASGYNFNIYWINWVRQAPGQGLEWIGNIYPSSISTNYNEKFKTRATLTVDKSTSTVYMELSSLRSEDTAVYYCARSEGTYYGGRYEGDWFGYWGQGTLVTVSS
VL: DIQMTQSPSSLSASVGDRVTITCRASQDIRNYLNWYQQKPGKAPKLLIYFTSTLHSGVPSRFSGSGSGTDFTLTISSLQPEDFATYYCQQGNTLPWTFGGGTKVEIKR
notes: hIgG4, κ
B1: the results for the EC50 (with human Sirpα-V1-his [1]; in the assay with human Sirpα-V1-his [3]; in assay [4]) were 0.077 nM, 0.087 nM and 0.124 nM, respectively. The IC50 – broadly, the point on the concentration scale where inhibition reaches its midpoint – in the assay with human Sirpα-V2-his [2] amounted to 2.39 nM; in the assay with human Sirpα-V1-hFc [5] it was 4.81 nM; with human Sirpα-V1-hFc [6], 3.88 nM; in the assay with human Sirpα-V1-his [7], 10.1 nM; in the assay with human Sirpα-V2-his [8], 6.29 nM.
